Results: patent publication US20170137514A1 (Bristol-Myers Squibb, published 2017)

T1: soluble human LAG-3/Fc antigen (human, UniProt P18627 23-450)
T1 construct: also called huLAG-3-Fc; not shown: Fc part of the fusion
T1 sequence: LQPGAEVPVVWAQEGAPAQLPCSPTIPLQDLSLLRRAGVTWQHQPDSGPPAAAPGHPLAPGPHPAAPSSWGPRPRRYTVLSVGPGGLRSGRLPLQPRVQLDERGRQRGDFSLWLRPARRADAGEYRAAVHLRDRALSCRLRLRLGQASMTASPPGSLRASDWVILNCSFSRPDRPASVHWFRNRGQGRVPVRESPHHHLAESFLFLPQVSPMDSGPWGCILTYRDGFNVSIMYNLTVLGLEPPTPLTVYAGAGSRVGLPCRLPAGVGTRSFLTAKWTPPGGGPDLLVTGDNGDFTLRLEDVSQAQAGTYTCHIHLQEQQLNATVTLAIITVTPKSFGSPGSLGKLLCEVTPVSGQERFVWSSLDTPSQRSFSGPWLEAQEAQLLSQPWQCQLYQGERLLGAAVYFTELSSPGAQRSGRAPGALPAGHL

T2: human LAG-3 on activated Hu CD4+ T cells
T2 construct: differs from m5, which is LAG-3 transduced into 3A9 cells; also called native human LAG-3
T2 chain: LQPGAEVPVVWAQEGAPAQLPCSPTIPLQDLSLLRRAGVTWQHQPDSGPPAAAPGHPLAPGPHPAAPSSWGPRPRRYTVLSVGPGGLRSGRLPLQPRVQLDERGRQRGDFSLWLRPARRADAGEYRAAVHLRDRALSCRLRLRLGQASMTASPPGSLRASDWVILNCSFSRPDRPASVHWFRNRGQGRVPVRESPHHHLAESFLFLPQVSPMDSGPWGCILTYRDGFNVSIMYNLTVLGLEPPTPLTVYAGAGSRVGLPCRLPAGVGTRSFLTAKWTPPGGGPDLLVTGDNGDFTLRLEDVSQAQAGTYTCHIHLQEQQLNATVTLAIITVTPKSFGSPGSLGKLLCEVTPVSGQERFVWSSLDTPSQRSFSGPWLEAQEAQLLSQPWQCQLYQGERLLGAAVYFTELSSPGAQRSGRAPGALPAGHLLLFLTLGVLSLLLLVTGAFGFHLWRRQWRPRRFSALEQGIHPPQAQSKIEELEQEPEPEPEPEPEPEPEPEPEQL


Key:
[1] = molecular target: T1, soluble human LAG-3/Fc antigen; experiment: BIACORE (surface plasmon resonance) with soluble human LAG-3/Fc antigen
[2] = molecular target: T2, human LAG-3 on activated Hu CD4+ T cells; experiment: flow cytometry on anti-CD3/anti-CD28-activated human CD4+ T cells (native LAG-3), PE anti-human Fc detection, FL2 GMFI
Description: (§1) To test the ability of the antibody variants to bind to native human LAG-3 on the surface of activated human T cells, normal healthy donor peripheral blood mononuclear cells were stimulated in 15 cm tissue culture plates at a density of 2×10e6 cells/mL, with a combination of anti-CD3 (eBioscience, Cat #16-0037-85) and anti-CD28 (BD Bioscience, Cat #555725) antibodies present in solution at 5 μg/mL and 3 μg/mL, respectively. Following three days of stimulation cells were harvested, washed 1× with 1×PFAE buffer (1×PBS+2% FBS, 0.02% sodium azide, 2 mM Na EDTA), and resuspended in 1×PFAE buffer for staining.
(§2) For the binding reaction, 100 μl of this diluted antibody mixture was added to 2×10⁵ cells and the mixture was incubated on at 4° C. for 30 minutes. The cells were then washed two times with 1×PFAE buffer. A 1:200 dilution of PE-labeled goat anti-human Fcγ-specific antibody (Jackson ImmunoResearch, Cat. #109-116-170) was added and the mixture was incubated for 30 minutes at 4° C., followed by washing twice with cold 1×PFAE buffer. After the final wash, 150 μl of cold 1×PFAE was added to each solution and analysis of antibody binding was carried out by flow cytometry using a FACSCanto flow cytometer (BD Bioscience).

[3] = molecular target: T1, soluble human LAG-3/Fc antigen; experiment: Biacore (SPR); antibody kept in PBS
[4] = molecular target: T1, soluble human LAG-3/Fc antigen; experiment: Biacore (SPR); antibody after accelerated stress at pH 8 (5 days, 40 C)
[5] = molecular target: T2, human LAG-3 on activated Hu CD4+ T cells; experiment: flow cytometry on activated human CD4+ T cells (donor WB1907), FL2 GMFI; antibody after 5 days at 40 °C in pH 8.0 ammonium bicarbonate
Description: as §1, §2

[6] = molecular target: T2, human LAG-3 on activated Hu CD4+ T cells; experiment: flow cytometry on activated human CD4+ T cells (donor WB1907), FL2 GMFI; forced stability study, sample not marked pH 8
Description: as §1, §2

Row | Binder | Kd [1] | koff [1] | kon [1] | EC50 [2] | EC50 (read off the curve) [2] | Kd [3] | Kd [4] | EC50 [5] | koff [3] | kon [3] | koff [4] | kon [4] | EC50 [6]
1 | LAG3.6-G4P (antibody, V domains shown, also called var2; copies: 2 + 2) VH: QVQLQQWGAGLLKPSETLSLTCAVYGGSFSDYYWNWIRQPPGKGLEWIGEIIHSGSTNSNPSLKSRVTLSLDTSKNQFSLKLRSVTAADTAVYYCAFGYSDYEYNWFDPWGQGTLVTVSS VL: EIVLTQSPATLSLSPGERATLSCRASQSISSYLAWYQQKPGQAPRLLIYDASNRATGIPARFSGSGSGTDFTLTISSLEPEDFAVYYCQQRSNWPLTFGQGTNLEIKR | 0.66 nM | 0.000777 s⁻¹ | 1.18e+06 M⁻¹ s⁻¹ | 0.21 nM |  |  |  |  |  |  |  |  | 
2 | LAG3.7-G4P (antibody, V domains shown, also called var3; copies: 2 + 2) VH: QVQLQQWGAGLLKPSETLSLTCAVYGGSFSDYYWNWIRQPPGKGLEWIGEINHGGGTNSNPSLKSRVTLSLDTSKNQFSLKLRSVTAADTAVYYCAFGYSDYEYNWFDPWGQGTLVTVSS VL: EIVLTQSPATLSLSPGERATLSCRASQSISSYLAWYQQKPGQAPRLLIYDASNRATGIPARFSGSGSGTDFTLTISSLEPEDFAVYYCQQRSNWPLTFGQGTNLEIKR |  |  | 1.04e+06 M⁻¹ s⁻¹ |  | ~0.3 nM |  |  |  |  |  |  |  | 
3 | antibody 25F7 (LAG3.1), anti-human LAG-3 human monoclonal antibody (antibody, human IgG4 S228P, kappa, V domains shown, The heavy chain is human IgG4 with S228P; also called antibody LAG3.1) VH: QVQLQQWGAGLLKPSETLSLTCAVYGGSFSDYYWNWIRQPPGKGLEWIGEINHNGNTNSNPSLKSRVTLSLDTSKNQFSLKLRSVTAADTAVYYCAFGYSDYEYNWFDPWGQGTLVTVSS VL: EIVLTQSPATLSLSPGERATLSCRASQSISSYLAWYQQKPGQAPRLLIYDASNRATGIPARFSGSGSGTDFTLTISSLEPEDFAVYYCQQRSNWPLTFGQGTNLEIKR | 0.27 nM |  |  | 0.13 nM |  | 0.21 nM | 0.2 nM | 0.2 nM |  |  |  |  | 
4 | LAG3.8 antibody variant of LAG3.1 (25F7) (antibody, V domains shown, It was made by site-directed mutagenesis of the LAG3.1 VH) VH: QVQLQQWGAGLLKPSETLSLTCAVYGGSFSDYYWNWIRQPPGKGLEWIGEINHIGNTNSNPSLKSRVTLSLDTSKNQFSLKLRSVTAADTAVYYCAFGYSDYEYNWFDPWGQGTLVTVSS VL: EIVLTQSPATLSLSPGERATLSCRASQSISSYLAWYQQKPGQAPRLLIYDASNRATGIPARFSGSGSGTDFTLTISSLEPEDFAVYYCQQRSNWPLTFGQGTNLEIKR |  |  |  |  |  | 0.25 nM | 0.25 nM | 0.21 nM | 0.000368 s⁻¹ | 1.47e+06 M⁻¹ s⁻¹ | 0.000402 s⁻¹ | 1.62e+06 M⁻¹ s⁻¹ | 0.24 nM
